The numbers were not newly measured in PMC4887106, which cites them from elsewhere.

The term Kd denotes the free concentration of one partner at which half of the binding sites on the other are occupied at equilibrium, for simple one-to-one binding.

The target in the data set is Histone H4K20me1/2 (Homo sapiens) (UniProt P62805).

For the substance MBTD1 4xMBT (from UniProt Q05BQ5), the Kd is 10 µM.
